Results from paper PMC10943098.

Molecular target: PP2A-B55 phosphatase (B55, A and C subunits) of Xenopus egg extracts (Xenopus (endogenous in egg extracts)) (UniProt Q7ZX64)
Experiment: enzyme inhibition kinetics (dephosphorylation of p-S113-Arpp19); kinase inactivated interphase extracts diluted 1/50 to 1/200; substrate p-S113-Arpp19 120 to 2000 nM; FAM122A 50, 125 and 250 nM or Thio-S71-Arpp19 1, 2 and 3 nM; quantitative western blot; global fit, competitive mode

Row | Substance | Ki [nM]
1 | His-Xenopus FAM122A (wildtype) (natural protein) | 28.1
2 | untagged thio-S71-phosphorylated Arpp19 (natural protein) | 0.22
